Data on one molecule can be found in paper PMC7955049, “ADAR1 RNA editing enzyme regulates R-loop formation and genome stability at telomeres in cancer cells” (Nature Communications, 2021).

The target of this assay is T1, FLAG-ADAR1p110-WT (UniProt P55265-5 1-931).
T1 construct: ADAR1 (ADAR, DRADA), nuclear p110 isoform, wild type; also called F-ADAR1p110-WT; F-ADAR1p110; source: HEK293T, stably expressing (p3XFLAG-CMV-10 plasmid co-transfected with pPUR), in lysate of formaldehyde-fixed cells
T1 sequence (looked up): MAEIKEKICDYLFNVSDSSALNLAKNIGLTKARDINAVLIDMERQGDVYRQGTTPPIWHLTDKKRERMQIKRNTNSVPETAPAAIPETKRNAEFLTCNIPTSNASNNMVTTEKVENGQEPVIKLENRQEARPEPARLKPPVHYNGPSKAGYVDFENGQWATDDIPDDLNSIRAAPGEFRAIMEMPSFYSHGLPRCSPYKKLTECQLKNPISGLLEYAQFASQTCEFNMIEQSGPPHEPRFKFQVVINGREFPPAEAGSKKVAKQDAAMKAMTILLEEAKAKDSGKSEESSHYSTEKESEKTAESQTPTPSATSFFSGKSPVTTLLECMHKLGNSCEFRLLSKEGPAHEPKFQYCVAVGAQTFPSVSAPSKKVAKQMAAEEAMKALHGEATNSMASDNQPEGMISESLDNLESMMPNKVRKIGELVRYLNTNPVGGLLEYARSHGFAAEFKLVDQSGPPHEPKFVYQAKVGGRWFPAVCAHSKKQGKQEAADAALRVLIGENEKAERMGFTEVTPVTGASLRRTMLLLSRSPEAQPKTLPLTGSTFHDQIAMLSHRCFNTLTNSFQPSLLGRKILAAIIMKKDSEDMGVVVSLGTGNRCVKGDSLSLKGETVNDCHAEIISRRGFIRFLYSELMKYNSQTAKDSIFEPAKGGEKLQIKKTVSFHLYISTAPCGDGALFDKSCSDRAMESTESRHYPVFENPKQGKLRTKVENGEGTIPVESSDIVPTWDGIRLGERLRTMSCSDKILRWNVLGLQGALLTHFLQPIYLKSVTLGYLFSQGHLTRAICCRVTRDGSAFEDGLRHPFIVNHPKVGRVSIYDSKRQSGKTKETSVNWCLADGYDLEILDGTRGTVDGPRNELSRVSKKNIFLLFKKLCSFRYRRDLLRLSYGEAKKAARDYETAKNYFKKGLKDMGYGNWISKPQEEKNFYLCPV
The assay is described as follows: co-IP; cells expressing the FLAG-tagged bait fixed with 0.3% formaldehyde, lysed in co-IP buffer (50 mM Tris-HCl pH 7.6, 150 mM NaCl, 1 mM EDTA, 1% NP-40, 0.5% sodium deoxycholate, 0.1% SDS, RNasin Plus) and sonicated; anti-FLAG M2 magnetic beads overnight at 4 °C; immunoblot; for Fig. 10c HEK293T cells unsynchronized or synchronized at M phase (thymidine-nocodazole). As to conditions: partners not purified. On the technique in general: A western blot detects proteins with antibodies after separation by electrophoresis.

B1: RNase H2A (natural protein, human (endogenous in HEK293T), UniProt O75792 1-299, looked up)
chain: MDLSELERDNTGRCRLSSPVPAVCRKEPCVLGVDEAGRGPVLGPMVYAICYCPLPRLADLEALKVADSKTLLESERERLFAKMEDTDFVGWALDVLSPNLISTSMLGRVKYNLNSLSHDTATGLIQYALDQGVNVTQVFVDTVGMPETYQARLQQSFPGIEVTVKAKADALYPVVSAASICAKVARDQAVKKWQFVEKLQDLDTDYGSGYPNDPKTKAWLKEHVEPVFGFPQFVRFSWRTAQTILEKEAEDVIWEDSASENQEGLRKITSYFLNEGSQARPRSSHRYFLERGLESATSL
notes: RNase H2 subunit A (RNaseH2A, AGS4), endogenous; also called RNase H2 subunit H2A; endogenous RNase H2A; source: endogenous, HEK293T lysate
With B1, the “fold increase of the co-IP in M-phase synchronized against unsynchronized cells” value is over 3 fold.
